From patent US8815237

Columns and labels:
Assay in all cases: SPR (Biacore T100), steady state; antibody immobilized, soluble receptor injected
[1] = molecular target: soluble human FcγRIIA^131H (human) (UniProt P12318)
[2] = molecular target: soluble human FcγRIIA^131R (human) (UniProt P12318)
[3] = molecular target: soluble human FcγRIa (R&D Systems) (human) (UniProt P12314)
UniProt P12314, sequence (P12314 16-288 limits assumed): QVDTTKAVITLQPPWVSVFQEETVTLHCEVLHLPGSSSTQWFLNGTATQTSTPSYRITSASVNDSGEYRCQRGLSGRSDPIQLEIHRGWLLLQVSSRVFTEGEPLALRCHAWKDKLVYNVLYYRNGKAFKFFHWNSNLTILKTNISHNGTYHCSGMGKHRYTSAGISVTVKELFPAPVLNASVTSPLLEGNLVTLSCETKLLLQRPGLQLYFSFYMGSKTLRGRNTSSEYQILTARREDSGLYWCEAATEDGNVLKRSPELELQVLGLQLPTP

Question: Which Kd [1] does the source give for 4m5.3 hIgG1 S298G/T299A (antibody) here?
Answer: 7 µM

Question: What about the Kd [2] of the same substance?
Answer: 1.7 µM

Question: What about the fold stronger binding than wild-type Fc [2] of the same substance?
Answer: 3 fold

Question: And the fold weakening of binding against wild type [3]?
Answer: 10 fold
